Test results as given in publication PMC6813240, “Functional Differentiation of Duplicated Flavonoid 3-O-Glycosyltransferases in the Flavonol and Anthocyanin Biosynthesis of Freesia hybrida” (Frontiers in Plant Science, 2019).

Legend:
purified protein = substrate: O=c1c(O)c(-c2ccc(O)cc2)oc2cc(O)cc(O)c12; assay: purified protein; conditions: 10 mM UDP-glucose, 50 mM HEPES pH 8.0, 30°C, 2 min
[1] = substrate: O=c1c(O)c(-c2ccc(O)c(O)c2)oc2cc(O)cc(O)c12; assay: HPLC glucosyltransferase assay; assay type: biochemical, Freesia hybrid cultivar; conditions: 10 mM UDP-glucose, 50 mM HEPES pH 8.0, 30°C, 2 min, acceptor 10-60 µM
[2] = acceptor 10-60 µM (Km lies far below this range)

Row | Protein | Km (purified protein; acceptor 10-60 µM) [µM] | Km [1] [µM] | kcat [1] [s⁻¹] | kcat/Km [1] [M⁻¹ s⁻¹] | Km (purified protein; [2]) [µM] | kcat (purified protein; [2]) [s⁻¹] | kcat/Km (purified protein; [2]) [M⁻¹ s⁻¹]
1 | Fh3GT1 (Freesia hybrid cultivar) (protein, recombinant from E. coli BL21 (DE3), pET32a, N-terminal 6x His tag, Ni Sepharose purified) MGSADRSHVALLAFPFGTHAAPLLSLGLNLASSAPHGTTFSFLSNRRPVSLPPNSAIKFYEIADGSDPEHEGHVHPEEEVRVFMEETPGNYKKALEAAVDRCGGQRVTCIVADAFLWFVGDIAAEFGVHWVPLWTGGPCSFLAHLYTDMLRNKIGTGKEADPDEDLQFLPGLSGFRVRDLPDDIVTGDLTGAFASLLHRMSIEIPRSAAAIAINTFEGLHPDIDADLASKFKKSLPIGPLNLLNPTLNQPDRFSCLAWLDKFEPHSVAYVSFGTLAALTEAELVELASGLEQSGVPFLWSLKEPGQLPAGFLDRTKDRGLVVPWVPQAEALKHVAVGASLSHCGWNSVMESVTSGVPMLCRPFLGDQTMNARAVSHVWKVGVTFENGTMTRANVAEAMKKVVVGEEGRKMRERAAAIREMAAGSVRPGGSSVQNFKALLDIVIAR | 45.38 ± 3.90 | 96.38 ± 5.03 | 4.51 ± 0.039 | 46900 | – | – | –
2 | Fh3GT2 (Freesia hybrid cultivar) (protein, recombinant from E. coli BL21 (DE3), pET32a, N-terminal 6x His tag, Ni Sepharose purified) MGSSQPPTRRRHVAVIAFPFSSHPAALFTLARAMAAAAPGTTFSFLSFPGSVDSLSKIPCRPENLRLCHVADPTPPGAIPPEQRIGMFLAAAPAYLRAGIKAAEALDGGGVTCLVSDSLLWMTADVAEEKGVPWVAVWTGGTSALVVHVYTDRLRKFYGVVHGDAIHPRADELLDVNVVPGFSEHRVRDLPEGILWKVDSPFASLVDTMVSKFPRAVAVVANTIPGLDPGLDAAFASKFKNYLPIGPFTILSPLPSPQHDNECVAWLDRQAPASVAYVSFGTLAALPPSELTELANGLEASGVPFLWSMKNKEALPAGFLDRTRGKGLVVDWAPQASVLAHNAVGGFVTHCGWSSVMESVAAGVPMICRSVFGDQTMTAKMVCNAWKIGFGFSGGAITREEVVRGLRMVLRGEEGGREIRERSSELKSLAWREVKVEGRTVKNLNSLIEIING | – | 16.62 ± 0.03 | 1.86 ± 0.0023 | 112000 | 0.13 ± 0.01 | 0.73 | 5.46e+06
